Source: patent publication US10233474B2, “Materials and methods for producing 6-carbon monomers” (INVISTA North America S.á.r.l., priority 2014, dated 2019)

B1: SEQ ID NO 9: Pseudomonas syringae ω-transaminase, N-terminal His-tagged (protein, listed as Pseudomonas syringae)
chain: MSANNPQTLEWQALSSEHHLAPFSDYKQLKEKGPRIITRAEGVYLWDSEGNKILDGMSGLWCVAIGYGREELADAASKQMRELPYYNLFFQTAHPPVLELAKAISDIAPEGMNHVFFTGSGSEGNDTMLRMVRHYWALKGQPNKKTIISRVNGYHGSTVAGASLGGMTYMHEQGDLPIPGVVHIPQPYWFGEGGDMTPDEFGIWAAEQLEKKILELGVENVGAFIAEPIQGAGGVIVPPDSYWPKIKEILSRYDILFAADEVICGFGRTSEWFGSDFYGLRPDMMTIAKGLTSGYVPMGGLIVRDEIVAVLNEGGDFNHGFTYSGHPVAAAVALENIRILREEKIVERVRSETAPYLQKRLRELSDHPLVGEVRGVGLLGAIELVKDKTTRERYTDKGAGMICRTFCFDNGLIMRAVGDTMIIAPPLVISFAQIDELVEKARTCLDLTLAVLQG
modifications: N-terminal His tag
notes: Pseudomonas syringae ω-transaminase, N-terminal His-tagged
B2: SEQ ID NO: 6: Segniliparus rotundus carboxylate reductase, N-terminal His-tagged (protein, listed as Segniliparus rotundus)
chain: MTQSHTQGPQASAAHSRLARRAAELLATDPQAAATLPDPEVVRQATRPGLRLAERVDAILSGYADRPALGQRSFQTVKDPITGRSSVELLPTFDTITYRELRERATAIASDLAHHPQAPAKPGDFLASIGFISVDYVAIDIAGVFAGLTAVPLQTGATLATLTAITAETAPTLFAASIEHLPTAVDAVLATPSVRRLLVFDYRAGSDEDREAVEAAKRKIADAGSSVLVDVLDEVIARGKSAPKAPLPPATDAGDDSLSLLIYTSGSTGTPKGAMYPERNVAHFWGGVWAAAFDEDAAPPVPAINITFLPLSHVASRLSLMPTLARGGLMHFVAKSDLSTLFEDLKLARPTNLFLVPRVVEMLYQHYQSELDRRGVQDGTREAEAVKDDLRTGLLGGRILTAGFGSAPLSAELAGFIESLLQIHLVDGYGSTEAGPVWRDGYLVKPPVTDYKLIDVPELGYFSTDSPHPRGELAIKTQTILPGYYKRPETTAEVFDEDGFYLTGDVVAQIGPEQFAYVDRRKNVLKLSQGEFVTLAKLEAAYSSSPLVRQLFVYGSSERSYLLAVIVPTPDALKKFGVGEAAKAALGESLQKIARDEGLQSYEVPRDFIIETDPFTVENGLLSDARKSLRPKLKEHYGERLEAMYKELADGQANELRDIRRGVQQRPTLETVRRAAAAMLGASAAEIKPDAHFTDLGGDSLSALTFSNFLHDLFEVDVPVGVIVSAANTLGSVAEHIDAQLAGGRARPTFATVHGKGSTTIKASDLTLDKFIDEQTLEAAKHLPKPADPPRTVLLTGANGWLGRFLALEWLERLAPAGGKLITIVRGKDAAQAKARLDAAYESGDPKLAGHYQDLAATTLEVLAGDFSEPRLGLDEATWNRLADEVDFISHPGALVNHVLPYNQLFGPNVAGVAEIIKLAITTRIKPVTYLSTVAVAAGVEPSALDEDGDIRTVSAERSVDEGYANGYGNSKWGGEVLLREAHDRTGLPVRVFRSDMILAHQKYTGQVNATDQFTRLVQSLLATGLAPKSFYELDAQGNRQRAHYDGIPVDFTAESITTLGGDGLEGYRSYNVFNPHRDGVGLDEFVDWLIEAGHPITRIDDYDQWLSRFETSLRGLPESKRQASVLPLLHAFARPGPAVDGSPFRNTVFRTDVQKAKIGAEHDIPHLGKALVLKYADDIKQLGLL
modifications: N-terminal His tag
notes: Segniliparus rotundus carboxylate reductase, N-terminal His-tagged
B3: SEQ ID NO 12: Vibrio fluvialis ω-transaminase, N-terminal His-tagged (protein, listed as Vibrio fluvialis)
chain: MNKPQSWEARAETYSLYGFTDMPSLHQRGTVVVTHGEGPYIVDVNGRRYLDANSGLWNMVAGFDHKGLIDAAKAQYERFPGYHAFFGRMSDQTVMLSEKLVEVSPFDSGRVFYTNSGSEANDTMVKMLWFLHAAEGKPQKRKILTRWNAYHGVTAVSASMTGKPYNSVFGLPLPGFVHLTCPHYWRYGEEGETEEQFVARLARELEETIQREGADTIAGFFAEPVMGAGGVIPPAKGYFQAILPILRKYDIPVISDEVICGFGRTGNTWGCVTYDFTPDAIISSKNLTAGFFPMGAVILGPELSKRLETAIEAIEEFPHGFTASGHPVGCAIALKAIDVVMNEGLAENVRRLAPRFEERLKHIAERPNIGEYRGIGFMWALEAVKDKASKTPFDGNLSVSERIANTCTDLGLICRPLGQSVVLCPPFILTEAQMDEMFDKLEKALDKVFAEVA
modifications: N-terminal His tag
notes: Vibrio fluvialis ω-transaminase, N-terminal His-tagged
B4: SEQ ID NO 8: Pseudomonas aeruginosa ω-transaminase, N-terminal His-tagged (protein, listed as Pseudomonas aeruginosa)
chain: MNARLHATSPLGDADLVRADQAHYMHGYHVFDDHRVNGSLNIAAGDGAYIYDTAGNRYLDAVGGMWCTNIGLGREEMARTVAEQTRLLAYSNPFCDMANPRAIELCRKLAELAPGDLDHVFLTTGGSTAVDTAIRLMHYYQNCRGKRAKKHVITRINAYHGSTFLGMSLGGKSADRPAEFDFLDERIHHLACPYYYRAPEGLGEAEFLDGLVDEFERKILELGADRVGAFISEPVFGSGGVIVPPAGYHRRMWELCQRYDVLYISDEVVTSFGRLGHFFASQAVFGVQPDIILTAKGLTSGYQPLGACIFSRRIWEVIAEPDKGRCFSHGFTYSGHPVACAAALKNIEIIEREGLLAHADEVGRYFEERLQSLRDLPIVGDVRGMRFMACVEFVADKASKALFPESLNIGEWVHLRAQKRGLLVRPIVHLNVMSPPLILTREQVDTVVRVLRESIEETVEDLVRAGHR
modifications: N-terminal His tag
notes: Pseudomonas aeruginosa ω-transaminase, N-terminal His-tagged
B5: SEQ ID NO 7: Chromobacterium violaceum ω-transaminase, N-terminal His-tagged (protein, listed as Chromobacterium violaceum)
chain: MQKQRTTSQWRELDAAHHLHPFTDTASLNQAGARVMTRGEGVYLWDSEGNKIIDGMAGLWCVNVGYGRKDFAEAARRQMEELPFYNTFFKTTHPAVVELSSLLAEVTPAGFDRVFYTNSGSESVDTMIRMVRRYWDVQGKPEKKTLIGRWNGYHGSTIGGASLGGMKYMHEQGDLPIPGMAHIEQPWWYKHGKDMTPDEFGVVAARWLEEKILEIGADKVAAFVGEPIQGAGGVIVPPATYWPEIERICRKYDVLLVADEVICGFGRTGEWFGHQHFGFQPDLFTAAKGLSSGYLPIGAVFVGKRVAEGLIAGGDFNHGFTYSGHPVCAAVAHANVAALRDEGIVQRVKDDIGPYMQKRWRETFSRFEHVDDVRGVGMVQAFTLVKNKAKRELFPDFGEIGTLCRDIFFRNNLIMRACGDHIVSAPPLVMTRAEVDEMLAVAERCLEEFEQTLKARGLA
modifications: N-terminal His tag
notes: Chromobacterium violaceum ω-transaminase, N-terminal His-tagged

Key:
Assay type in all cases: biochemical
[1] = ω-transaminase activity, reverse direction (6-aminohexanoate to adipate semialdehyde); conditions: cell free extract; 10 mM 6-aminohexanoate, 10 mM pyruvate, pH 7.5, 25° C., 24 h; RP-HPLC
Procedure: (§1) A nucleotide sequence encoding a His-tag was added to the nucleic acid sequences from Chromobacterium violaceum, Pseudomonas aeruginosa, Pseudomonas syringae, Rhodobacter sphaeroides, and Vibrio fluvialis encoding the ω-transaminases of SEQ ID NOs: 7, 8, 9, 10 and 12, respectively (see FIG. 6) such that N-terminal HIS tagged ω-transaminases could be produced. Each of the resulting modified genes was cloned into a pET21a expression vector under control of the T7 promoter and each expression vector was transformed into a BL21[DE3] E. coli host. The resulting recombinant E. coli strains were cultivated at 37° C. in a 250 mL shake flask culture containing 50 mL LB media and antibiotic selection pressure, with shaking at 230 rpm. Each culture was induced overnight at 16° C. using 1 mM IPTG.
(§2) The pellet from each induced shake flask culture was harvested via centrifugation. Each pellet was resuspended and lysed via sonication. The cell debris was separated from the supernatant via centrifugation and the cell free extract was used immediately in enzyme activity assays.
Enzyme activity assays in the reverse direction (i.e., 6-aminohexanoate to adipate semialdehyde) were performed in a buffer composed of a final concentration of 50 mM HEPES buffer (pH=7.5), 10 mM 6-aminohexanoate, 10 mM pyruvate and […] pyridoxyl 5′ phosphate. Each enzyme activity assay reaction was initiated by adding cell free extract of the ω-transaminase gene product or the empty vector control to the assay buffer containing the 6-aminohexanoate and incubated at 25° C. for 24 h, with shaking at 250 rpm. The formation of L-alanine from pyruvate was quantified via RP-HPLC.

[2] = ω-transaminase activity, forward direction (adipate semialdehyde to 6-aminohexanoate); conditions: cell free extract; 10 mM adipate semialdehyde, 10 mM L-alanine, pH 7.5, 25° C., 4 h; RP-HPLC
Procedure: as §1, §2
Enzyme activity in the forward direction (i.e., adipate semialdehyde to 6-aminohexanoate) was confirmed for the transaminases of SEQ ID NO 7, SEQ ID NO 8, SEQ ID NO 9, SEQ ID NO 10 and SEQ ID NO 12. Enzyme activity assays were performed in a buffer composed of a final concentration of 50 mM HEPES buffer (pH=7.5), 10 mM adipate semialdehyde, 10 mM L-alanine and 100 μM pyridoxyl 5′ phosphate. Each enzyme activity assay reaction was initiated by adding a cell free extract of the ω-transaminase gene product or the empty vector control to the assay buffer containing the adipate semialdehyde and incubated at 25° C. for 4 h, with shaking at 250 rpm. The formation of pyruvate was quantified via RP-HPLC.

[3] = carboxylate reductase activity (adipate semialdehyde to hexanedial); conditions: purified enzyme with sfp phosphopantetheine transferase; 2 mM adipate semialdehyde, pH 7.5, room temperature, 20 min
Procedure: The N-terminal His-tagged carboxylate reductase of SEQ ID NO 6 (see Example 2 and FIG. 6) was assayed using adipate semialdehyde as substrate. The enzyme activity assay was performed in triplicate in a buffer composed of a final concentration of 50 mM HEPES buffer (pH=7.5), 2 mM adipate semialdehyde, 10 mM MgCl2, 1 mM ATP and 1 mM NADPH. The enzyme activity assay reaction was initiated by adding purified carboxylate reductase and phosphopantetheine transferase or the empty vector control to the assay buffer containing the adipate semialdehyde and then incubated at room temperature for 20 min. The consumption of NADPH was monitored by absorbance at 340 nm.

Molecule	ω-transaminase activity: conversion of pyruvate to L-alanine with 6-aminohexanoate as substrate, against the empty vector control [1]	ω-transaminase activity: conversion of L-alanine to pyruvate with adipate semialdehyde as substrate, against the empty vector control [2]	carboxylate reductase activity: consumption of NADPH (absorbance at 340 nm) with adipate semialdehyde as substrate, against the empty vector control [3]
SEQ ID NO 10: Rhodobacter sphaeroides ω-transaminase, N-terminal His-tagged	accepted 6-aminohexanote as substrate	accepted adipate semialdehyde as substrate	
B1	accepted 6-aminohexanote as substrate	accepted adipate semialdehyde as substrate	
B2			accepted adipate semialdehyde as substrate
B3	accepted 6-aminohexanote as substrate	accepted adipate semialdehyde as substrate	
B4		accepted adipate semialdehyde as substrate	
B5	accepted 6-aminohexanote as substrate	accepted adipate semialdehyde as substrate	
